Results from patent publication US20250388907A1, “MULTISPECIFIC POLYNUCLEOTIDE NANOSTRUCTURES FOR CANCER DETECTION AND THERAPY” (Atom Bioworks, Inc., priority 2021, published 2025).
“And” between values parts separate entries of the source, which are not always exact repeats. Identical values can stand only once. Like-named read-outs stand apart in the source and are kept apart here.

B1: #1: CD117-binding aptamer, SEQ ID NO: 3 (nucleic acid)
chain: GAGGCATACCAGCTTATTCAAGGGGCCGGGGCAAGGGGGGGGTACCGTGGTAGGACATAGTAAGTGCAATCTGCGAA
modifications: listed as DNA, chemistry not fully specified
B2: Oligo-Protein G conjugates: docking oligo conjugated via sulfo-SMCC linker to 6xHis-tagged recombinant Protein G (conjugate)
chain: TYKLILNGKTLKGETTTEAVDAATAEKVFKQYANDNGVDGEWTYDDATKTFTVTEKPEVIDASELTPAVTTYKLVINGKTLKGETTTEAVDAATAEKVFKQYANDNGVDGEWTYDDATKTFTVTEKPEVIDASELTPAVTTYKLVINGKTLKGETTTKAVDAETAEKAFKQYANDNGVDGVWTYDDATKTFTVTE
B3: 3x3v2-Conjugate: Oligo-Protein G conjugates immobilized on 3x3v2 nets (conjugate)
chain: B2 chain
B4: ZW25: CD123-binding aptamer, SEQ ID NO: 4 (nucleic acid)
chain: TGCGTGTGTAGTGTGTCTGGGCTACATCGATGAGCTGCCTAGGGTCCCTCTTAGGGATTTGGGCGGG
modifications: listed as DNA, chemistry not fully specified
B5: CY30: CD123-binding aptamer, SEQ ID NO: 5 (nucleic acid)
chain: TGCGTGTGTACTGTGTCTGGTCCCGTAGCTACTAGCGAACTCCCTGCCTCTTAGGGATTTGGGCGG
modifications: listed as DNA, chemistry not fully specified
B6: ABWT050904: CD117-binding aptamer, SEQ ID NO: 2 (nucleic acid)
chain: ATCCAGAGTGACGCAGCACGAGCCTTGTGTCGTTCGGAGTGCTGGTCCACGACTACTATTGGACACGGTGGCTTAGT
modifications: listed as DNA, chemistry not fully specified
B7: ABWT050902 (ssDNA)
DNA: ATCCAGAGTGACGCAGCACCGCCCATGTCGAATAGGTGCCACGTAGGGACTTGGACACGGTGGCTTAGT
B8: ABWT050902: CD117-binding aptamer, SEQ ID NO: 1; FAM-labeled or daunorubicin-loaded in tests (nucleic acid)
chain: B7 DNA
modifications: FAM label or daunorubicin loading in tests, chemistry not fully specified

Legend:
MM1S cells = assay: MTT cell killing assay; format: cell-based, Human; settings: Example 3: 24 hours treatment, MTT after 48 hours; daunorubicin 40 μM; daunorubicin-loaded aptamers 4 μM and 2 μM
Protocol: (§1) Daunorubicin-loaded aptamers were then diluted across various concentrations: 4 μM, 2 μM, 0.2 μM, and 0.02 μM. Untreated cells were used as a negative killing control. 10% DMSO was used as a positive killing control. 40 μM daunorubicin was also used as a positive killing control but one that matched the current National Comprehensive Cancer Network (NCCN) guidelines for AML daunorubicin chemotherapy dosing. Cells were incubated with their respective treatments for 24 hours before they were washed with cell medium. After 48 hours, the viability of all cells were assessed using MTT assays. All conditions were performed in triplicate for standard error analysis. MM1S cells were used as negative control in the assays having aptamers at 4 μM and 2 μM, respectively.
Daunorubicin-loaded aptamers were prepared as described in Example 3. The killing activity of daunorubicin-loaded aptamers alone and daunorubicin-loaded aptamers on various networks of polynucleotides, i.e., 3x3v1 nets and TRD1 tiles on KASUMI-1 cells (an AML cell line) were assessed using the procedures as described in Example 3. […]

KASUMI-1 cells = assay: MTT cell killing assay; format: cell-based, Human; settings: for ΔFold over Free (3x3v1): IC50 on 3x3v1 net versus free aptamer; for ΔFold over Free (TRD1): IC50 on TRD1 versus free aptamer
Protocol: as §1
Daunorubicin-loaded aptamers were prepared as described in Example 3. The killing activity of daunorubicin-loaded aptamers alone and daunorubicin-loaded aptamers on various networks of polynucleotides, i.e., 3x3v1 nets and TRD1 tiles on KASUMI-1 cells (an AML cell line) were assessed using the procedures as described in Example 3. Additional negative killing controls were added to control for any inherent nonspecific killing effects by the networks of polynucleotides or aptamers: “3x3v1 net (Empty)” is 3x3v1 net without aptamers (therefore, no daunorubicin), “TRD1 (Empty)” is TRD1 without aptamers (therefore, no daunorubicin), “Scramble Aptamer 1”, “Scramble Aptamer 2”, and “Scramble Aptamer 3” were three oligos with lengths and A:T:C:G ratios similar to the tested aptamers but whose nucleotide sequences were randomized but also loaded with daunorubicin. 0.4 μM Daunorubicin were intercalated into aptamers across all conditions.
KASUMI-1 cells were cultured and incubated with all five aptamers (each loaded with daunorubicin) across six concentrations: 10 nM, 1 nM, […] and 100 fM. 10% DMSO, 40 μM daunorubicin, 4 μM daunorubicin, and 0.4 μM daunorubicin were used as positive killing controls. 3x3v1 net (Empty), TRD1 (Empty), Scramble Aptamer 1, Scramble Aptamer 2, and Scramble Aptamer 3 were negative killing controls. Incubation and washing procedures were as described in Experiment 3. After 48 hours, the samples were measured for viability via MTT assay. Data points were plotted and unpaired student's t—tests were performed to determine significance. For IC50 calculations, the concentrations were transformed to the logarithmic equivalent followed by normalization of the relative cell viability on a scale of 0-100. The normalized viability was subjected to nonlinear regression against the logarithmically converted inhibitor concentrations in the three parameters variable slope mode to determine the IC50. […]
ABWT050902 aptamers with D1 dock sites were loaded with daunorubicin as described previously. Aptamers were then immobilized on PTR45 and PTR86 (please refer to FIG. 17B and FIG. 17C). PTR45 was loaded with 20 ABWT050902 D1 aptamers, whereas PTR86 were loaded with 40. KASUMI-1 cells were grown, incubated with analytes, and measured via MTT cell killing assays as described previously.

mouse IgG = assay: SPR binding assay of Protein G activity, Biacore CM5 chip; settings: mouse IgG immobilized on CM5 chip, equivalent conjugate amount
Protocol: We used a sulfo-SMCC linker to conjugate an oligo (complementary to 3x3v1 docking sites) bearing a 5′ amine to the N terminal cysteine sulfhydryl R group on 6xHis-tagged recombinant Protein G (the oligo also bore a 3′ biotin for later purification). This was performed at room temperature in 1x phosphate buffered saline (PBS), pH 7.4. Oligo functionalization with sulfo-SMCC was performed first (as is typical), followed by two Zeba column (7 kDa molecular weight cutoff) cleanups to remove the excess sulfo-SMCC. Functionalized oligos were then placed in molar excess to Cys-Protein G. Purification proceeded via usage of monomeric avidin resin (to remove any unconjugated Cys-Protein G) followed by Ni^2+-NTA resin (to remove any unconjugated oligos). Oligo-Protein G conjugates were then docked to 3x3v1 (27 docking sites) and 3x3v2 (9 docking sites) nets and assayed for activity on SPR binding assays.

CD117 (c-KIT) = CD117 (c-KIT) (UniProt P10721 P10721:26-524); assay: SPR; aptamer alone, CD117 immobilized on CM5 chip; settings: tags: immobilized on Biacore CM5 chip; label: 5' FAM (flow cytometry)
Protocol: Next, surface plasmon resonance (SPR) assays were performed to assess the ability of networks of polynucleotides to improve the binding affinity of an aptamer. Aptamer ABWT050902 (a CD 117 binder) was folded as previously described. Aptamers alone, and aptamers on a TRD1 (as illustrated in FIG. 2) were prepared at varying concentrations and flowed over a CM5 sensor chip on a Biacore SPR immobilized with CD117. The inter-binder distances of the 96 uniquely addressable docking loci for CD 117 binders was 5 nm. Concentrations were normalized to total aptamer amount.

[1] = Kinetic fluorescent assay of daunorubicin release over time; settings: free daunorubicin in supernatant buffer
Text: Despite both “ABWT050902 Alone, With Daunorubicin” and “ABWT050902 on TRD1” conditions beginning the assay at the same time, the former began the assay with higher fluorescence of 400.0+ RFUs compared to the latter. This is because more free daunorubicin was in the supernatant buffer of “ABWT050902 Alone, with Daunorubicin” compared to “ABWT050902 on TRD1”.

CD117 = CD117 (Homo sapiens, UniProt P10721); assay: SPR binding assay, Biacore CM5 chip; settings: CD117 immobilized on CM5 chip, concentrations normalized to total aptamer amount
[2] = KASUMI-1, MTT after 48 hours, daunorubicin or daunorubicin-loaded aptamer alone, read-out: IC50 (pM) Free
[3] = KASUMI-1, daunorubicin-loaded aptamer immobilized on 3x3v1 net, read-out: IC50 (pM) 3x3v1
[4] = KASUMI-1, daunorubicin-loaded aptamer immobilized on 3x3v1 net, read-out: IC90 (pM) 3x3v1
[5] = KASUMI-1, daunorubicin-loaded aptamer immobilized on TRD1, read-out: IC50 (pM) TRD1
[6] = KASUMI-1, daunorubicin-loaded aptamer immobilized on TRD1, read-out: IC90 (pM) TRD1

Chain of CD117 (P10721 26-976): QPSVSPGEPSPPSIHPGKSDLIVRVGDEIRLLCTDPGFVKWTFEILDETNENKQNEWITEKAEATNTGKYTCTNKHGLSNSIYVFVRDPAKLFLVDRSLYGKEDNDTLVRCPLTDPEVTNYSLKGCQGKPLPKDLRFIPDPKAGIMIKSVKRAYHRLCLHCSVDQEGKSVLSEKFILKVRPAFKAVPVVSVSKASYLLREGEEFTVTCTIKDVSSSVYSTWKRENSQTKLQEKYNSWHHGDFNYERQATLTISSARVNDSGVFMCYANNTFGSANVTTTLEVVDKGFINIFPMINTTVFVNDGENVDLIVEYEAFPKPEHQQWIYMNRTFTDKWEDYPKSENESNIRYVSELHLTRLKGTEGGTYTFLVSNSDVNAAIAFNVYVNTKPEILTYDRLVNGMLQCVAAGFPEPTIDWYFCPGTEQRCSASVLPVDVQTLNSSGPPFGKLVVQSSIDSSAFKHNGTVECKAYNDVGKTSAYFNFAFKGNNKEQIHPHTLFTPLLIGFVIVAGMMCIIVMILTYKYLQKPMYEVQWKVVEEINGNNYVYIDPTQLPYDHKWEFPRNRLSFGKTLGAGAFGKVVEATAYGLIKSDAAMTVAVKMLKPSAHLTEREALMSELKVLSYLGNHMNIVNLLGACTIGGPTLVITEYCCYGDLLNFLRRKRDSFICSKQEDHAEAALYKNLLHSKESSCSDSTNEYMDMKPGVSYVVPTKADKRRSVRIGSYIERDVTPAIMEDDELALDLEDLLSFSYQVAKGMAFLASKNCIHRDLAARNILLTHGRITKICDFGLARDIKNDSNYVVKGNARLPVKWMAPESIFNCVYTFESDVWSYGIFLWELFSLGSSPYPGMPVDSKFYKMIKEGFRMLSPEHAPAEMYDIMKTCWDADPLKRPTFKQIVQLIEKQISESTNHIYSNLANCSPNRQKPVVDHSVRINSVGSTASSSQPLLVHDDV
Chain of CD117 (c-KIT) (P10721 26-524, one chain of several): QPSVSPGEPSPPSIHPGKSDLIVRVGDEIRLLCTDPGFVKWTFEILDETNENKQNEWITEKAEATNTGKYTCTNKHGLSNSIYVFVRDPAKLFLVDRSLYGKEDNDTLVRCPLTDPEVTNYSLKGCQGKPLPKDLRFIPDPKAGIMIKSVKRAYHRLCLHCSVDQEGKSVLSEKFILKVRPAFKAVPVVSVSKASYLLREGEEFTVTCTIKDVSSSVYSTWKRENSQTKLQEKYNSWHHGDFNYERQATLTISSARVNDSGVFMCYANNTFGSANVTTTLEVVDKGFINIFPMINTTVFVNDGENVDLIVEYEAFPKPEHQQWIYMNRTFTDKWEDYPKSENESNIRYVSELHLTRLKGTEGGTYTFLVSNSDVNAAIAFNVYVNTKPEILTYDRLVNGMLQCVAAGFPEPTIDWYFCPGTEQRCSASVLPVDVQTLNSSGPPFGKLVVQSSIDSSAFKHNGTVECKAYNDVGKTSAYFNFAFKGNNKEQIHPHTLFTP

| Molecule | ΔFold over Free (3x3v1) (KASUMI-1 cells) [x] | ΔFold over Free (TRD1) (KASUMI-1 cells) [x] | IC50 (KASUMI-1 cells; [2]) [pM] | IC50 (KASUMI-1 cells; [3]) [pM] | IC90 (KASUMI-1 cells; [4]) [pM] | IC50 (KASUMI-1 cells; [5]) [pM] | IC90 (KASUMI-1 cells; [6]) [pM] | also measured |
| --- | --- | --- | --- | --- | --- | --- | --- | --- |
| COc1cccc2c1C(=O)c1c(O)c3c(c(O)c1C2=O)C[C@@](O)(C(C)=O)C[C@@H]3O[C@H]1C[C@H](N)[C@H](O)[C@H](C)O1 [Daunorubicin, daunorubicin, reference compound] | – | – | – | – | – | – | – | killing of MM1S cells (MM1S cells): approximately 50%; killing of KASUMI-1 cells (KASUMI-1 cells; Example 3: 24 hours treatment, MTT after 48 hours, daunorubicin 40 μM, daunorubicin-loaded aptamers 4-0.02 μM): approximately 20%; IC50 (KASUMI-1 cells; Homo sapiens, Kasumi 1, 48 h, read-out: IC50 (pM) Free): 58400 pM |
| B1 | 3.6 | 5.6 | 531 | 147 | 208000 | 95 | 165000 | IC90 (KASUMI-1 cells; KASUMI-1, daunorubicin-loaded aptamer alone, read-out: IC90 (pM) Free): 108000 pM |
| B2 | – | – | – | – | – | – | – | relative response, binding to mouse IgG (mouse IgG): ~145 RUs |
| B3 | – | – | – | – | – | – | – | relative response, binding to mouse IgG (mouse IgG): ~170 RUs |
| B4 | 8.0 | 34.7 | 3540 | 445 | 128000 | 102 | 7830 | – |
| B5 | 5.5 | 38.1 | 5070 | 931 | 8700 | 133 | 93600 | – |
| B6 | 4.2 | – | 976 | 233 | 17600 | – | – | – |
| B7 | – | – | – | – | – | – | – | Kd (CD117 (c-KIT)): 1220 nM |
| B8 | 2.4 | – | 529 | 218 | 61800 | – | – | fluorescence at the beginning of the daunorubicin release assay [1]: ≥ 400.0 RFUs; Kd (CD117): ~1220 nM and 1220 nM |
